{
  "source": "paper PMC8849102",
  "target": "recombinant human ICAM-5 Fc Chimera (human) (UniProt Q9UMF0)",
  "sequence (Q9UMF0 32-835, stated change not applied)": "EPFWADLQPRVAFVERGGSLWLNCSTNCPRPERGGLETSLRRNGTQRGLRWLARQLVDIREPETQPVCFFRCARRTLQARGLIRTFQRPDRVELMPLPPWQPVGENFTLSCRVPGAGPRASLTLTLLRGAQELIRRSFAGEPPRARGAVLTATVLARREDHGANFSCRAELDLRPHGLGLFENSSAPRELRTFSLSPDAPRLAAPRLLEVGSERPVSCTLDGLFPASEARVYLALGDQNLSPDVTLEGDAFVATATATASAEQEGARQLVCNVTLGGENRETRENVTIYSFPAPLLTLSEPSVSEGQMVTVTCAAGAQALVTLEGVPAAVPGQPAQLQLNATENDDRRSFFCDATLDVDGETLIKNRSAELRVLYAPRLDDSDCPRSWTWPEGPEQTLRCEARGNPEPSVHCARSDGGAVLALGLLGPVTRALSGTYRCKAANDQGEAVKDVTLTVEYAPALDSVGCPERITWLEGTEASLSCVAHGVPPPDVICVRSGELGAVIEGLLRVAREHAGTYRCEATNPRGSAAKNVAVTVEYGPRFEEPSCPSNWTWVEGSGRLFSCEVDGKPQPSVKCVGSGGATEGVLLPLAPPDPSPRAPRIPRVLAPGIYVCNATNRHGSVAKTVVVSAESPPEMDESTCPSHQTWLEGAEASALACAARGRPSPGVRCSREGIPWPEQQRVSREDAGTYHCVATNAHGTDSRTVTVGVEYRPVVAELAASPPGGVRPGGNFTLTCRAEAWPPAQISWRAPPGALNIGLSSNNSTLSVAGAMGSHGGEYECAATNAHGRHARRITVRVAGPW",
  "assay": "pull-down; ICAM-5 Fc chimera covalently attached to magnetic Dynabeads; incubated with the 1.11 (membrane-associated) or 1.20 g/cm^3 (naked) viral density fraction for 1 h at 33°C, then overnight at 4°C; beads rinsed 2x for 10 min in PBS; bound virus read as viral titer (TCID50) after PBS plus 0.1% NP-40; control: nonspecific antibody-coated beads",
  "data": [
    {"substance": "Enterovirus D68 (EV-D68) viral particles, strain US/MO/14-18947 (complex)", "values": [
      {"measurement": "fold viral titer immunoprecipitated over control beads", "result": 1000, "unit": "fold"}
    ]}
  ]
}
